Reference: paper doi:10.1101/209809 (bioRxiv, 2017)
Values belong to the binder of their own block, whether it stands above or below them.

Key:
[1] = molecular target: T1, CPSF-160;WDR33 (1-572);CPSF-30 (human;human;human, UniProt Q10570;Q9C0J8;O95639-2 1-1443;1-572;1-244, ||); test: EMSA
[2] = molecular target: CPSF-160;WDR33 (1-572);MBP-CPSF-30(33-170) (human;human;human, UniProt Q10570;Q9C0J8;O95639-2 1-1443;1-572;33-170, ||); test: EMSA
[3] = molecular target: CPSF-160–WDR33 binary complex (human, UniProt Q10570 1-1443; Q9C0J8 1-572); test: cryo-EM structure
CPSF-160–WDR33 binary complex, sequence (Q10570 whole entry, the tested form may be a part, one chain of several): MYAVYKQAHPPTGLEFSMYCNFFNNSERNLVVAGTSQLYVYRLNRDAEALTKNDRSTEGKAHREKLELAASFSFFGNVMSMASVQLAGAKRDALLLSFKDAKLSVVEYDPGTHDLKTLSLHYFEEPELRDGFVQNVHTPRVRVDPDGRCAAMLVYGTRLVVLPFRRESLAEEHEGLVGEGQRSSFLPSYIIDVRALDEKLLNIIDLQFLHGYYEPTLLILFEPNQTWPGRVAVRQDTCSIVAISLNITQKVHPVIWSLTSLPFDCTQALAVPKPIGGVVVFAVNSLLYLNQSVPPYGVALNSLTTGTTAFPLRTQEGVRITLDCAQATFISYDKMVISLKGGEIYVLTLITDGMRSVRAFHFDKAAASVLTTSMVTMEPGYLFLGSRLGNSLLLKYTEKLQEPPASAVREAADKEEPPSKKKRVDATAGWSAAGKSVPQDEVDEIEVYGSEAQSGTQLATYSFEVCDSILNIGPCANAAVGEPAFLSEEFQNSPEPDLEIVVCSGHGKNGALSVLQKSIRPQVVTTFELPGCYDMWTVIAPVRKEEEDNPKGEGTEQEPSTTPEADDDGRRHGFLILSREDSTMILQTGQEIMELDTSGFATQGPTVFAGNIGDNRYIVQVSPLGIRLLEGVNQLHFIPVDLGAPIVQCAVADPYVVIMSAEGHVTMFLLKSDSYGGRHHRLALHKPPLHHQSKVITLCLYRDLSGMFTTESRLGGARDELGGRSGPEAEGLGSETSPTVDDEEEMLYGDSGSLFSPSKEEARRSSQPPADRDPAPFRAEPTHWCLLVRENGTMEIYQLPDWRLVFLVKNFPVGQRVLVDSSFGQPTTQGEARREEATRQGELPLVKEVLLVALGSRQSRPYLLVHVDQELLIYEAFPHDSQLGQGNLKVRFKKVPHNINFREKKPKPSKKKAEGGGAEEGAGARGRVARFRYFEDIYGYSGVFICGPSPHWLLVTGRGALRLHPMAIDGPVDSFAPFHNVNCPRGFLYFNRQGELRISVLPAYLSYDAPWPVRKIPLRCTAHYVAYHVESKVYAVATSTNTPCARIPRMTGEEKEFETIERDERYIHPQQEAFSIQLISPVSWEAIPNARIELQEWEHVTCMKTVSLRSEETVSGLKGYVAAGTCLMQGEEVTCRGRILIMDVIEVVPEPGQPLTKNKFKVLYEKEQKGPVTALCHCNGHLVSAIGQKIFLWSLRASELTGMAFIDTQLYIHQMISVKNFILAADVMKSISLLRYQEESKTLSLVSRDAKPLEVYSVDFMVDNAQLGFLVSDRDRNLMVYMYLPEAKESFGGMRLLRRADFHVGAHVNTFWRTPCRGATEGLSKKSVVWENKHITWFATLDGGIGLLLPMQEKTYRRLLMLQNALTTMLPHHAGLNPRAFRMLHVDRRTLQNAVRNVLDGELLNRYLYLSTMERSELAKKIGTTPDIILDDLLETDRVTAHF

[4] = molecular target: T2, N-terminal region of human WDR33 (residues 1-572) (human, UniProt Q9C0J8 1-572); test: cryo-EM structure
T2 sequence (looked up): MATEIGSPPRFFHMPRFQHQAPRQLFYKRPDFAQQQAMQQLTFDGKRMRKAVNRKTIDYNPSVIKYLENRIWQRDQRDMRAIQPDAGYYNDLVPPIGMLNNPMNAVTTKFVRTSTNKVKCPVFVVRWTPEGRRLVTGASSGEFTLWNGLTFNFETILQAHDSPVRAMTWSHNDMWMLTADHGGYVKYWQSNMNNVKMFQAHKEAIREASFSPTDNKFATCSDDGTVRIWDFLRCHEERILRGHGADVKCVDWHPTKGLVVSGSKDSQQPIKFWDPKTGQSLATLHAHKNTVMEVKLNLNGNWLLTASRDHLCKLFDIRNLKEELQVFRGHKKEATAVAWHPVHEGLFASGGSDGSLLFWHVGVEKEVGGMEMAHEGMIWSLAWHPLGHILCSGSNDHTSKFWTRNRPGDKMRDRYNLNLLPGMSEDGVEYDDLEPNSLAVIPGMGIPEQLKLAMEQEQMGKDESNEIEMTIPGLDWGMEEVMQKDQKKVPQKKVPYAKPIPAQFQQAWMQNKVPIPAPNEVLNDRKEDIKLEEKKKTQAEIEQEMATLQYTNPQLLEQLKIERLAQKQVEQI

[5] = molecular target: T1, CPSF-160;WDR33 (1-572);CPSF-30; test: cryo-EM structure

T1 sequence (Q10570 whole entry, one chain of several): as the sequence (Q10570 whole entry, the tested form may be a part, one chain of several) above
CPSF-160;WDR33 (1-572);MBP-CPSF-30(33-170), sequence (Q10570 whole entry, chain 1 of 2, one chain of several): as the sequence (Q10570 whole entry, the tested form may be a part, one chain of several) above

B1: 17-mer PAS RNA (AAUAAA) (ssRNA)
RNA: AACCUCCAAUAAACAAC
binding result [1]: binds
binding result [2]: binds

binding result [3]: binds
binding result [4]: binds
B2: full-length human CPSF-30 (isoform 2), MBP removed by TEV protease (natural protein, UniProt O95639-2 1-244, looked up)
chain: MQEIIASVDHIKFDLEIAVEQQLGAQPLPFPGMDKSGAAVCEFFLKAACGKGGMCPFRHISGEKTVVCKHWLRGLCKKGDQCEFLHEYDMTKMPECYFYSKFGECSNKECPFLHIDPESKIKDCPWYDRGFCKHGPLCRHRHTRRVICVNYLVGFCPEGPSCKFMHPRFELPMGTTEQPPLPQQTQPPAKQRTPQVIGVMQSQNSSAGNRGPRPLEQVTCYKCGEKGHYANRCTKGHLAFLSGQ

B3: 17-mer PAS RNA, unlabeled (EM) (ssRNA)
RNA: AACCUCCAAUAAACAAC
binding result [5]: binds
